According to US12099068B2, “Biomarkers for graft-versus-host disease” (Incyte Corporation, priority 2018, dated 2024):

B1: MEPE (protein, UniProt Q9NQ76 18-525, looked up)
Matrix extracellular …: PTFQPQTEKTKQSCVEEQRQEEKNKDNIGFHHLGKRINQELSSKENIVQERKKDLSLSEASENKGSSKSQNYFTNRQRLNKEYSISNKENTHNGLRMSIYPKSTGNKGFEDGDDAISKLHDQEEYGAALIRNNMQHIMGPVTAIKLLGEENKENTPRNVLNIIPASMNYAKAHSKDKKKPQRDSQAQKSPVKSKSTHRIQHNIDYLKHLSKVKKIPSDFEGSGYTDLQERGDNDISPFSGDGQPFKDIPGKGEATGPDLEGKDIQTGFAGPSEAESTHLDTKKPGYNEIPEREENGGNTIGTRDETAKEADAVDVSLVEGSNDIMGSTNFKELPGREGNRVDAGSQNAHQGKVEFHYPPAPSKEKRKEGSSDAAESTNYNEIPKNGKGSTRKGVDHSNRNQATLNEKQRFPSKGKSQGLPIPSRGLDNEIKNEMDSFNGPSHENIITHGRKYHYVPHRQNNSTRNKGMPQGKGSWGRQPHSNRRFSSRRRDDSSESSDSGSSSESDGD
B2: BACH1 (protein, UniProt O14867 1-736, looked up)
Transcription regulator …: MSLSENSVFAYESSVHSTNVLLSLNDQRKKDVLCDVTIFVEGQRFRAHRSVLAACSSYFHSRIVGQADGELNITLPEEVTVKGFEPLIQFAYTAKLILSKENVDEVCKCVEFLSVHNIEESCFQFLKFKFLDSTADQQECPRKKCFSSHCQKTDLKLSLLDQRDLETDEVEEFLENKNVQTPQCKLRRYQGNAKASPPLQDSASQTYESMCLEKDAALALPSLCPKYRKFQKAFGTDRVRTGESSVKDIHASVQPNERSENECLGGVPECRDLQVMLKCDESKLAMEPEETKKDPASQCPTEKSEVTPFPHNSSIDPHGLYSLSLLHTYDQYGDLNFAGMQNTTVLTEKPLSGTDVQEKTFGESQDLPLKSDLGTREDSSVASSDRSSVEREVAEHLAKGFWSDICSTDTPCQMQLSPAVAKDGSEQISQKRSECPWLGIRISESPEPGQRTFTTLSSVNCPFISTLSTEGCSSNLEIGNDDYVSEPQQEPCPYACVISLGDDSETDTEGDSESCSAREQECEVKLPFNAQRIISLSRNDFQSLLKMHKLTPEQLDCIHDIRRRSKNRIAAQRCRKRKLDCIQNLESEIEKLQSEKESLLKERDHILSTLGETKQNLTGLCQKVCKEAALSQEQIQILAKYSAADCPLSFLISEKDKSTPDGELALPSIFSLSDRPPAVLPPCARGNSEPGYARGQESQQMSTATSEQAGPAEQCRQSGGISDFCQQMTDKCTTDE
B3: ST3GAL1 (protein, UniProt Q11201 1-340, looked up)
CMP-N-acetylneuraminate-beta-g …: MVTLRKRTLKVLTFLVLFIFLTSFFLNYSHTMVATTWFPKQMVLELSENLKRLIKHRPCTCTHCIGQRKLSAWFDERFNQTMQPLLTAQNALLEDDTYRWWLRLQREKKPNNLNDTIKELFRVVPGNVDPMLEKRSVGCRRCAVVGNSGNLRESSYGPEIDSHDFVLRMNKAPTAGFEADVGTKTTHHLVYPESFRELGDNVSMILVPFKTIDLEWVVSAITTGTISHTYIPVPAKIRVKQDKILIYHPAFIKYVFDNWLQGHGRYPSTGILSVIFSMHVCDEVDLYGFGADSKGNWHHYWENNPSAGAFRKTGVHDADFESNVTATLASINKIRIFKGR
B4: CPM (protein, UniProt P14384 18-423, looked up)
Carboxypeptidase M: LDFNYHRQEGMEAFLKTVAQNYSSVTHLHSIGKSVKGRNLWVLVVGRFPKEHRIGIPEFKYVANMHGDETVGRELLLHLIDYLVTSDGKDPEITNLINSTRIHIMPSMNPDGFEAVKKPDCYYSIGRENYNQYDLNRNFPDAFEYNNVSRQPETVAVMKWLKTETFVLSANLHGGALVASYPFDNGVQATGALYSRSLTPDDDVFQYLAHTYASRNPNMKKGDECKNKMNFPNGVTNGYSWYPLQGGMQDYNYIWAQCFEITLELSCCKYPREEKLPSFWNNNKASLIEYIKQVHLGVKGQVFDQNGNPLPNVIVEVQDRKHICPYRTNKYGEYYLLLLPGSYIINVTVPGHDPHITKVIIPEKSQNFSALKKDILLPFQGQLDSIPVSNPSCPMIPLYRNLPDHS
B5: CST5 (protein, UniProt P28325 21-142, looked up)
Cystatin-D: GSASAQSRTLAGGIHATDLNDKSVQCALDFAISEYNKVINKDEYYSRPLQVMAAYQQIVGGVNYYFNVKFGRTTCTKSQPNLDNCPFNDQPKLKEEEFCSFQINEVPWEDKISILNYKCRKV
B6: NFKBIE (protein, UniProt O00221 1-500, looked up)
NF-kappa-B inhibitor epsilon: MNQRRSESRPGNHRLQAYAEPGKGDSGGAGPLSGSARRGRGGGGAIRVRRPCWSGGAGRGGGPAWAVRLPTVTAGWTWPALRTLSSLRAGPSEPHSPGRRPPRAGRPLCQADPQPGKAARRSLEPDPAQTGPRPARAAGMSEARKGPDEAEESQYDSGIESLRSLRSLPESTSAPASGPSDGSPQPCTHPPGPVKEPQEKEDADGERADSTYGSSSLTYTLSLLGGPEAEDPAPRLPLPHVGALSPQQLEALTYISEDGDTLVHLAVIHEAPAVLLCCLALLPQEVLDIQNNLYQTALHLAVHLDQPGAVRALVLKGASRALQDRHGDTALHVACQRQHLACARCLLEGRPEPGRGTSHSLDLQLQNWQGLACLHIATLQKNQPLMELLLRNGADIDVQEGTSGKTALHLAVETQERGLVQFLLQAGAQVDARMLNGCTPLHLAAGRGLMGISSTLCKAGADSLLRNVEDETPQDLTEESLVLLPFDDLKISGKLLLCTD
B7: VWC2 (protein, UniProt Q2TAL6 28-325, looked up)
Brorin: SPSIPLEKLAQAPEQPGQEKREHASRDGPGRVNELGRPARDEGGSGRDWKSKSGRGLAGREPWSKLKQAWVSQGGGAKAGDLQVRPRGDTPQAEALAAAAQDAIGPELAPTPEPPEEYVYPDYRGKGCVDESGFVYAIGEKFAPGPSACPCLCTEEGPLCAQPECPRLHPRCIHVDTSQCCPQCKERKNYCEFRGKTYQTLEEFVVSPCERCRCEANGEVLCTVSACPQTECVDPVYEPDQCCPICKNGPNCFAETAVIPAGREVKTDECTICHCTYEEGTWRIERQAMCTRHECRQM
B8: SERPINA5 (protein, UniProt P05154 26-406, looked up)
Plasma serine protease …: EMKKRVEDLHVGATVAPSSRRDFTFDLYRALASAAPSQSIFFSPVSISMSLAMLSLGAGSSTKMQILEGLGLNLQKSSEKELHRGFQQLLQELNQPRDGFQLSLGNALFTDLVVDLQDTFVSAMKTLYLADTFPTNFRDSAGAMKQINDYVAKQTKGKIVDLLKNLDSNAVVIMVNYIFFKAKWETSFNHKGTQEQDFYVTSETVVRVPMMSREDQYHYLLDRNLSCRVVGVPYQGNATALFILPSEGKMQQVENGLSEKTLRKWLKMFKKRQLELYLPKFSIEGSYQLEKVLPSLGISNVFTSHADLSGISNHSNIQVSEMVHKAVVEVDESGTRAAAATGTIFTFRSARLNSQRLVFNRPFLMFIVDNNILFLGKVNRP
B9: PAM (protein, UniProt P19021 31-973, looked up)
Peptidyl-glycine …: FKETTRPFSNECLGTTRPVVPIDSSDFALDIRMPGVTPKQSDTYFCMSMRIPVDEEAFVIDFKPRASMDTVHHMLLFGCNMPSSTGSYWFCDEGTCTDKANILYAWARNAPPTRLPKGVGFRVGGETGSKYFVLQVHYGDISAFRDNNKDCSGVSLHLTRLPQPLIAGMYLMMSVDTVIPAGEKVVNSDISCHYKNYPMHVFAYRVHTHHLGKVVSGYRVRNGQWTLIGRQSPQLPQAFYPVGHPVDVSFGDLLAARCVFTGEGRTEATHIGGTSSDEMCNLYIMYYMEAKHAVSFMTCTQNVAPDMFRTIPPEANIPIPVKSDMVMMHEHHKETEYKDKIPLLQQPKREEEEVLDQGDFYSLLSKLLGEREDVVHVHKYNPTEKAESESDLVAEIANVVQKKDLGRSDAREGAEHERGNAILVRDRIHKFHRLVSTLRPPESRVFSLQQPPPGEGTWEPEHTGDFHMEEALDWPGVYLLPGQVSGVALDPKNNLVIFHRGDHVWDGNSFDSKFVYQQIGLGPIEEDTILVIDPNNAAVLQSSGKNLFYLPHGLSIDKDGNYWVTDVALHQVFKLDPNNKEGPVLILGRSMQPGSDQNHFCQPTDVAVDPGTGAIYVSDGYCNSRIVQFSPSGKFITQWGEESSGSSPLPGQFTVPHSLALVPLLGQLCVADRENGRIQCFKTDTKEFVREIKHSSFGRNVFAISYIPGLLFAVNGKPHFGDQEPVQGFVMNFSNGEIIDIFKPVRKHFDMPHDIVASEDGTVYIGDAHTNTVWKFTLTEKLEHRSVKKAGIEVQEIKEAEAVVETKMENKPTSSELQKMQEKQKLIKEPGSGVPVVLITTLLVIPVVVLLAIAIFIRWKKSRAFGDSEHKLETSSGRVLGRFRGKGSGGLNLGNFFASRKGYSRKGFDRLSTEGSDQEKEDDGSESEEEYSAPLPALAPSSS
B10: TXLNA (protein, UniProt P40222 1-546, looked up)
Alpha-taxilin: MKNQDKKNGAAKQSNPKSSPGQPEAGPEGAQERPSQAAPAVEAEGPGSSQAPRKPEGAQARTAQSGALRDVSEELSRQLEDILSTYCVDNNQGGPGEDGAQGEPAEPEDAEKSRTYVARNGEPEPTPVVNGEKEPSKGDPNTEEIRQSDEVGDRDHRRPQEKKKAKGLGKEITLLMQTLNTLSTPEEKLAALCKKYAELLEEHRNSQKQMKLLQKKQSQLVQEKDHLRGEHSKAVLARSKLESLCRELQRHNRSLKEEGVQRAREEEEKRKEVTSHFQVTLNDIQLQMEQHNERNSKLRQENMELAERLKKLIEQYELREEHIDKVFKHKDLQQQLVDAKLQQAQEMLKEAEERHQREKDFLLKEAVESQRMCELMKQQETHLKQQLALYTEKFEEFQNTLSKSSEVFTTFKQEMEKMTKKIKKLEKETTMYRSRWESSNKALLEMAEEKTVRDKELEGLQVKIQRLEKLCRALQTERNDLNKRVQDLSAGGQGSLTDSGPERRPEGPGAQAPSSPRVTEAPCYPGAPSTEASGQTGPQEPTSARA
B11: hOSCAR (protein, UniProt Q8IYS5 19-282, looked up)
Osteoclast-associated …: DITPSVPPASYHPKPWLGAQPATVVTPGVNVTLRCRAPQPAWRFGLFKPGEIAPLLFRDVSSELAEFFLEEVTPAQGGIYRCCYRRPDWGPGVWSQPSDVLELLVTEELPRPSLVALPGPVVGPGANVSLRCAGRLRNMSFVLYREGVAAPLQYRHSAQPWADFTLLGARAPGTYSCYYHTPSAPYVLSQRSEVLVISWEGEGPEARPASSAPGMQAPGPPPSDPGAQAPSLSSFRPRGLVLQPLLPQTQDSWDPAPPPSDPGV
B12: PVR (protein, UniProt P15151 21-417, looked up)
Poliovirus receptor: WPPPGTGDVVVQAPTQVPGFLGDSVTLPCYLQVPNMEVTHVSQLTWARHGESGSMAVFHQTQGPSYSESKRLEFVAARLGAELRNASLRMFGLRVEDEGNYTCLFVTFPQGSRSVDIWLRVLAKPQNTAEVQKVQLTGEPVPMARCVSTGGRPPAQITWHSDLGGMPNTSQVPGFLSGTVTVTSLWILVPSSQVDGKNVTCKVEHESFEKPQLLTVNLTVYYPPEVSISGYDNNWYLGQNEATLTCDARSNPEPTGYNWSTTMGPLPPFAVAQGAQLLIRPVDKPINTTLICNVTNALGARQAELTVQVKEGPPSEHSGISRNAIIFLVLGILVFLILLGIGIYFYWSKCSREVLWHCHLCPSSTEHASASANGHVSYSAVSRENSSSQDPQTEGTR

Tested on: plasma proteins
Assay: Plasma proteins modulated between baseline and day 28 in responders (CR, VGPR, PR; n = 19), Example 6 (Table 13)
Format: in vivo, human
Settings: plasma protein (OLINK NPX); responders (CR, VGPR, PR; n = 19); itacitinib 200 mg or 300 mg QD with corticosteroids; day 28 vs baseline
Procedure, shortened: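 Plasma at baseline/screening and day 28 profiled for >1000 proteins by OLINK proximity extension assay, reported as NPX (log2). Steroid-naive and steroid-refractory patients pooled. Paired and unpaired t tests, ANOVA and Pearson correlation applied; significance at P<0.05.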

| Molecule | Fold Change, Decreased Expression from Baseline to Day 28 | Fold Change, Increased Expression from Baseline to Day 28 |
| --- | --- | --- |
| B1 | −1.4941 | – |
| B2 | −1.4794 | – |
| B3 | – | 1.3415 |
| B4 | – | 1.1479 |
| B5 | – | 1.3521 |
| B6 | −1.2885 | – |
| B7 | – | 1.3331 |
| B8 | – | 1.2683 |
| B9 | – | 1.1653 |
| B10 | −1.5277 | – |
| B11 | −1.2603 | – |
| B12 | – | 1.1964 |
